Results: the supplement of paper PMC10567573

B1: VTI1B (parent)
chain: ANETLAEMEEELRYAPLSFRNPMM
B2: FANCE (parent)
chain: AQVLMLGQILELPWKEETFLVLQS

Variants of: B1
Assay: protein stability index of a GFP-peptide fusion (GPS, HEK-293T) (PSI 1-6); higher = more stable
Conditions: c terminus: a fixed tail appended
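Also: lentivirally expressed fusions sorted by FACS into six bins by GFP to DsRed ratio, PSI derived from sequencing read proportions per bin multiplied by bin number.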

Protein stability index, by site and new letter:
T4: D 2.33 | C 1.69 | A 2.15
A1: H 2.16 | M 2.65 | F 1.81 | W 2.82 | G 3.02 | T 2.36 | Y 2.54 | E 2.72 | S 2.49 | I 1.91 | L 2.14 | P 2.37 | N 2.27 | Q 1.92 | V 1.34 | K 2.04 | D 2.69 | R 1.46 | C 2.39
E3: C 2.01 | M 2.1 | S 2.27 | A 2.18 | K 2.85 | W 2.29 | I 2.1 | F 1.96 | V 2.13 | Y 1.94 | P 2.26 | G 2.51 | D 2.97 | N 2.43 | H 2.43 | Q 2.53 | T 2.01 | L 1.38
N2: I 2.53 | W 1.06 | C 2.13 | Y 2.05 | H 2.9 | A 2.91 | R 1.26 | Q 2.27 | S 1.94 | L 2.58 | T 2.19 | P 2.52 | G 2.01

Variants of: B2
Assay: as above
Conditions: c terminus: a fixed tail appended

Protein stability index of substitutions, site by site:
K15: W 2.14 | Y 5.17 | M 2.91 | A 2.06 | N 1.94 | V 5.16 | H 3.52 | S 2.58 | D 2.01 | T 3.16 | E 2.32 | Q 1.47 | P 4.32 | L 2.82 | F 2.52
V21: S 2.05 | I 2.06 | P 2.17 | Y 3.3 | K 2.9 | G 3.02 | F 2.56 | D 2.08 | H 1.77 | Q 2.54 | W 2.4 | R 3.15 | T 3.45 | C 3.25 | A 3.08 | N 2.3 | E 2.57
Q23: V 2 | W 3.42 | M 2.95 | Y 3.54 | G 2.42 | A 3.11 | I 2.18 | F 1.91 | K 3.22 | N 2.44 | P 3.09 | D 1.78 | C 4.36 | T 2.41
L12: D 2.26 | G 3.1 | F 2.48 | A 3.6 | S 2.69 | C 3.49 | I 2.49 | Y 2.6 | H 2.4 | K 2.57 | Q 2.95 | T 2.91 | N 1.94 | M 3.18 | W 2.1 | P 4.52 | R 3.1 | E 2.39
W14: E 2.01 | T 2.08 | R 4.06 | P 1.83 | Y 2.51 | N 3.44 | K 1.96 | C 2.55 | H 3.52 | F 2.72 | G 2.07 | D 1.58 | I 2.95 | S 3.07 | L 2.21
Q8: Y 3.2 | I 4.26 | S 2.42 | E 1.35 | A 2.48 | V 3.43 | F 2.51 | H 2.57 | M 2.39 | R 2.63 | L 3.68 | T 2.34 | G 4.12 | W 2.25
I9: L 3.3 | P 2.75 | Q 1.68 | T 2.91 | C 2.36 | K 1.6 | H 2.26 | F 3.22 | A 3.41 | G 1.73 | S 2.09 | R 2.46 | M 2.82 | N 1.7 | E 1.63 | D 2.85
T18: G 3.68 | N 4.29 | M 2.92 | H 3.02 | R 4.64 | P 1.79 | A 1.7 | D 1.84 | S 2.84 | L 2.16 | F 3.58 | Q 2.45 | Y 2.29
E17: N 4.33 | V 4.49 | A 2.43 | Y 5.43 | H 3.21 | F 1.89 | G 4.35 | D 3.79 | M 2.08 | R 1.48 | Q 3.48 | L 2.23 | K 3.12
L22: R 1.63 | V 1.7 | S 1.13 | T 1.61 | W 2.86 | M 2.5 | Q 2.08 | F 2.29 | E 2 | D 1.49 | H 2.08 | N 1.47 | G 3.21 | A 2.06 | K 2.14 | Y 2.56
G7: Q 2.19 | D 2.12 | C 2.25 | N 2.85 | R 4.09 | F 2.22 | W 3.13 | I 3.43 | P 2.51 | V 2.8 | E 3.09 | S 2.32
P13: Y 2.88 | D 2.95 | C 4.64 | N 3.19 | L 2.2 | H 2.19 | A 5.32 | I 2.77 | K 2.57 | Q 2.39 | F 3.35 | W 3.76
L10: M 2.01 | A 1.81 | E 1.94 | F 3.56 | P 2.35 | Y 4.15 | R 3.13 | T 2.28 | H 3.55 | G 2.19 | N 1.88 | D 1.78 | S 3 | K 2.04
L20: N 2.56 | A 3.76 | P 1.94 | V 3 | Q 2.98 | I 2.31 | T 1.76 | Y 3.73 | W 2.87 | R 2.61 | S 2.3 | M 1.73 | D 1.6 | H 2.03 | E 2.24 | K 1.91 | G 1.81 | C 1.48
E11: A 4.02 | I 1.47 | T 2.47 | M 5.04 | F 3.3 | D 3.64 | H 1.11 | K 2.65 | P 3.01 | C 5.4 | Y 3.17 | R 2.01 | L 1.81 | V 3.41 | G 2.17
S24: W 3.86 | N 3.35 | Q 1.69 | I 5.17 | L 3.04 | A 1.88 | R 2.69 | F 2.67 | C 2.6 | E 3.98 | H 2.58 | Y 2.4 | G 2.41 | K 2.21 | D 1.83 | T 2.51
F19: E 2.25 | K 1.53 | Y 2.24 | H 3.46 | M 2.68 | W 1.88 | G 2.11 | R 2.1 | N 2.02 | S 1.75 | P 1.55 | Q 1.51 | D 2.53 | T 1.56 | C 1.54 | V 2.48 | A 1.77
L6: K 3.18 | Y 3.4 | R 1.13 | G 2.17 | P 1.53 | H 3.74 | S 2.7 | F 2.61 | I 3.28 | Q 1.63 | W 2.46 | T 2.23
E16: L 3.01 | A 3.98 | V 3.46 | T 3.35 | Q 3.56 | N 2.23 | K 2.78 | H 3.11 | M 2.5 | Y 3.33 | R 1.97 | D 1.67 | G 2.03 | F 4.03
